In article PMC10471729, “Luvadaxistat: A Novel Potent and Selective D-Amino Acid Oxidase Inhibitor Improves Cognitive and Social Deficits in Rodent Models for Schizophrenia” (Neurochemical Research, 2023):

Tested on: T1, N[C@H](CO)C(=O)O
T1 construct: human recombinant DAAO enzyme
Assay: Amplex Red H2O2 detection; Michaelis constant (in-house data)
Format: biochemical, Homo sapiens
Settings: FAD

Chain of D-amino acid oxidase (DAAO) (Homo sapiens) (chain, as listed by the source): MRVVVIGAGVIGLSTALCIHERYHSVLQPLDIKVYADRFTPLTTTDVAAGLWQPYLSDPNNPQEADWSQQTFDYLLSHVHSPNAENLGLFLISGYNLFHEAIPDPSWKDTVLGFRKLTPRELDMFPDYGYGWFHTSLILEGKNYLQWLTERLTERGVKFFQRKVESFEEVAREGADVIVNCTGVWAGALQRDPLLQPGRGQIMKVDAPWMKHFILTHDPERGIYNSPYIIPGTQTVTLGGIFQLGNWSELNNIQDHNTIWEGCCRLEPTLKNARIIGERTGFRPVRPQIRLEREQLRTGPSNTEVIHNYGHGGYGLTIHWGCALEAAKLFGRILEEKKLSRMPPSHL

D-amino acid oxidase (DAAO) (Homo sapiens)
Km: 1.2 mM
